For one assay, the target named is 14-3-3θ (UniProt P27348). The assay is described as follows: co-immunoprecipitation. Particulars: reference: wild type hnRNPA1; sites S4,S6.
The next assay has as its target 14-3-3σ (UniProt P31947). Put plainly: co-immunoprecipitation. To be noted: reference: wild type hnRNPA1; sites S4,S6.

For hnRNPA1 (from UniProt P09651) S4AS6A, the “binding against the reference” value with 14-3-3θ and in the assay with 14-3-3σ was “lost” each time.
